{"source": "paper PMC9949911", "origin": "cited, not measured here", "molecular_target": "IL-18bp (Homo sapiens) (UniProt O95998)", "sequence (O95998 31-194)": "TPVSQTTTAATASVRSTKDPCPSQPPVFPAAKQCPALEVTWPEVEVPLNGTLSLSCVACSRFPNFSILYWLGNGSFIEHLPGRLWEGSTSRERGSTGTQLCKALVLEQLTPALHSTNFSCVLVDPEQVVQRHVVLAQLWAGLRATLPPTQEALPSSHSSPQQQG", "data": [{"substance": "IL-18 (from UniProt Q14116)", "values": [{"measurement": "Kd", "result": 0.05, "unit": "nM"}]}]}
